From article PMC3343102, “Dynamics of Brassinosteroid Response Modulated by Negative Regulator LIC in Rice”

T1: MBP-OsBZR1 (Oryza sativa, UniProt Q7XI96 1-298)
T1 sequence: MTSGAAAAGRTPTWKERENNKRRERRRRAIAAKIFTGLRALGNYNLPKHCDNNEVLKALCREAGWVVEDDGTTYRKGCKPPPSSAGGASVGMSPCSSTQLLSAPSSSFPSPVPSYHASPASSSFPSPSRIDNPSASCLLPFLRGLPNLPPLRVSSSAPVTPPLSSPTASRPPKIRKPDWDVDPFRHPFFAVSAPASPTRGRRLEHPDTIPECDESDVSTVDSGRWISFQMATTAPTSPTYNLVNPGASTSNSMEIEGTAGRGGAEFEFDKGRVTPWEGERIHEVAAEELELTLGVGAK

B1: LIC promoter P2 (dsDNA)
DNA 1: CGGGCGCGTGTGTGGCGG
DNA 2: CCGCCACACACGCGCCCG
B2: LIC promoter P1 (dsDNA)
DNA 1: CGACGTCGTGCGGCCGCG
DNA 2: CGCGGCCGCACGACGTCG
B3: MP1 (P1 with CGTGCG to CGAAAA) (dsDNA)
DNA 1: CGACGTCGAAAAGCCGCG
DNA 2: CGCGGCTTTTCGACGTCG

Biological target: T1, MBP-OsBZR1
Test: EMSA; EMSA, 20 uL: 2 ug protein; 2 uL 10x buffer (100 mM Tris, 500 mM KCl, 10 mM DTT, pH 7.5), 1 uL each of 50% glycerol, 1% NP-40, 1 M KCl, 100 mM MgCl2, 200 mM EDTA, 1 ug/uL poly(dI-dC); i.e. about 10 mM Tris, 100 mM KCl, 5 mM MgCl2, 10 mM EDTA; 25 C, 20 min; 10% native PAGE
Conditions: protein: recombinant; tags: MBP (N-terminal fusion, pETMALc-H); chain copies: 2; label: biotin 3' end; blunt

| Binder | binding result |
| --- | --- |
| B1 | no binding |
| B2 | binds |
| B3 | no binding |
